Data set [1] has as its target HMGB1ΔC (Homo sapiens, UniProt P09429 1-185, del186-215). The data set is described as follows: fluorescence anisotropy; 50 nM DNA; sigmoidal dose-response fit; 10 mM Tris-HCl pH 7.5, 50 mM NaCl, 0.5 mM DTT, 0.1 mM EDTA, 5% glycerol; 25 °C (anisotropy). Conditions: protein: recombinant; tags: N-terminal 6xHis with TEV site, not removed; label: 5'-6-FAM on complementary strand; blunt. (Polarisation of emitted light reports the rotation of a fluorescent probe.)

Data set [2] has as its target HMGB1 (Homo sapiens, UniProt P09429 1-215). The description is as above. Conditions: protein: recombinant; tags: N-terminal 6xHis with TEV site, not removed; label: 5'-6-FAM on complementary strand; blunt.

HMGB1ΔC, sequence (P09429 1-185, stated change not applied): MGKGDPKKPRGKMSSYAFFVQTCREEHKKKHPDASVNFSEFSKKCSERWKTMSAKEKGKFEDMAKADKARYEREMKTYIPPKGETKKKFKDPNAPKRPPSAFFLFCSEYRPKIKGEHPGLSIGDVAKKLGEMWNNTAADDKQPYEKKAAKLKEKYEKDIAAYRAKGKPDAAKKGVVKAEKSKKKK
HMGB1, sequence (P09429 whole entry): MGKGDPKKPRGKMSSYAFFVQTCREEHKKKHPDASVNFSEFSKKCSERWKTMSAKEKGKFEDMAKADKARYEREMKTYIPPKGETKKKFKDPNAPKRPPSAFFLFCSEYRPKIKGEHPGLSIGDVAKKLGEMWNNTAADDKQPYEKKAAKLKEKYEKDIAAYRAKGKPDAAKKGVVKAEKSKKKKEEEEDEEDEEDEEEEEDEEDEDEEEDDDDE

B1: 20-bp dsDNA, 6-FAM (dsDNA)
DNA 1: TACTGTATGAGCATACAGTA
DNA 2: TACTGTATGCTCATACAGTA
On to B1, for which the Kd (commonly the equilibrium constant for the complex coming apart) in data set [1] is 72 ± 4 nM; in data set [2], 88 ± 5 nM.

The values are drawn from publication PMC3821859, “Role of the Acidic Tail of High Mobility Group Protein B1 (HMGB1) in Protein Stability and DNA Bending”.
